According to patent US20230201319:

Molecular target: von Willebrand factor (VWF) in plasma of patients with severe COVID-19, P04275

B1: Purified recombinant human ADAMTS13 (rADAMTS13, Takeda, Vienna, Austria) from a Chinese hamster ovary cell line (protein)
chain: AAGGILHLELLVAVGPDVFQAHREDTERYVLTNLNIGAELLRDPSLGAQFRVHLVKMVILTEPEGAPNITANLTSSLLSVCGWSQTINPEDDTDPGHADLVLYITRFDLELPDGNRQVRGVTQLGGACSPTWSCLITEDTGFDLGVTIAHEIGHSFGLEHDGAPGSGCGPSGHVMASDGAAPRAGLAWSPCSRRQLLSLLSAGRARCVWDPPRPQPGSAGHPPDAQPGLYYSANEQCRVAFGPKAVACTFAREHLDMCQALSCHTDPLDQSSCSRLLVPLLDGTECGVEKWCSKGRCRSLVELTPIAAVHGRWSSWGPRSPCSRSCGGGVVTRRRQCNNPRPAFGGRACVGADLQAEMCNTQACEKTQLEFMSQQCARTDGQPLRSSPGGASFYHWGAAVPHSQGDALCRHMCRAIGESFIMKRGDSFLDGTRCMPSGPREDGTLSLCVSGSCRTFGCDGRMDSQQVWDRCQVCGGDNSTCSPRKGSFTAGRAREYVTFLTVTPNLTSVYIANHRPLFTHLAVRIGGRYVVAGKMSISPNTTYPSLLEDGRVEYRVALTEDRLPRLEEIRIWGPLQEDADIQVYRRYGEEYGNLTRPDITFTYFQPKPRQAWVWAAVRGPCSVSCGAGLRWVNYSCLDQARKELVETVQCQGSQQPPAWPEACVLEPCPPYWAVGDFGPCSASCGGGLRERPVRCVEAQGSLLKTLPPARCRAGAQQPAVALETCNPQPCPARWEVSEPSSCTSAGGAGLALENETCVPGADGLEAPVTEGPGSVDEKLPAPEPCVGMSCPPGWGHLDATSAGEKAPSPWGSIRTGAQAAHVWTPAAGSCSVSCGRGLMELRFLCMDSALRVPVQEELCGLASKPGSRREVCQAVPCPARWQYKLAACSVSCGRGVVRRILYCARAHGEDDGEEILLDTQCQGLPRPEPQEACSLEPCPPRWKVMSLGPCSASCGLGTARRSVACVQLDQGQDVEVDEAACAALVRPEASVPCLIADCTYRWHVGTWMECSVSCGDGIQRRRDTCLGPQAQAPVPADFCQHLPKPVTVRGCWAGPCVGQGTPSLVPHEEAAAPGRTTATPAGASLEWSQARGLLFSPAPQPRRLLPGPQENSVQSSACGRQHLEPTGTIDMRGPGQADCAVAIGRPLGEVVTLRVLESSLNCSAGDMLLLWGRLTWRKMCRKLLDMTFSSKTNTLVVRQRCGRPGGGVLLRYGSQLAPETFYRECDMQLFGPWGEIVSPSLSPATSNAGGCRLFINVAPHARIAIHALATNMGAGTEGANASYILIRDTHSLRTTAFHGQQVLYWESESSQAEMEFSEGFLKAQASLRGQYWTLQSWVPEMQDPQSWKGKEGT
- Decrease (%) of VWF:CB 0 vs. 5 hrs, plasma B1: 65%
- Decrease (%) of VWF:CB 0 vs. 5 hrs, plasma B2: 60%
- Decrease (%) of VWF:CB 0 vs. 5 hrs, plasma B5: 65%
- Decrease (%) of VWF:CB 0 vs. 5 hrs, plasma B7: 52%
- Decrease (%) of VWF:CB 0 vs. 5 hrs, plasma B15: 44%
- Decrease (%) of VWF:CB 0 vs. 5 hrs, plasma B18: 63%
- Decrease (%) of VWF:CB 0 vs. 5 hrs, plasma S6: 33%
- Decrease (%) of VWF:CB 0 vs. 5 hrs, plasma S10: 60%
- Decrease (%) of VWF:CB 0 vs. 5 hrs, plasma S12: 53%
- Decrease (%) of VWF:CB 0 vs. 5 hrs, plasma S21: 44%
- Dimer relative to total multimer content (AUC %) at 0 hrs, plasma B1: 3.6 AUC %
- Dimer relative to total multimer content (AUC %) at 0 hrs, plasma B2: 5.4 AUC %
- Dimer relative to total multimer content (AUC %) at 0 hrs, plasma B5: 3.7 AUC %
- Dimer relative to total multimer content (AUC %) at 0 hrs, plasma B7: 5.3 AUC %
- Dimer relative to total multimer content (AUC %) at 0 hrs, plasma B15: 5.1 AUC %
- Dimer relative to total multimer content (AUC %) at 0 hrs, plasma B18: 3.6 AUC %
- Dimer relative to total multimer content (AUC %) at 0 hrs, plasma S6: 5.4 AUC %
- Dimer relative to total multimer content (AUC %) at 0 hrs, plasma S21: 4.9 AUC %
- Dimer relative to total multimer content (AUC %) at 5 hrs, plasma B1: 9.1 AUC %
- Dimer relative to total multimer content (AUC %) at 5 hrs, plasma B2: 11.3 AUC %
- Dimer relative to total multimer content (AUC %) at 5 hrs, plasma B5: 11 AUC %
- Dimer relative to total multimer content (AUC %) at 5 hrs, plasma B7: 10.1 AUC %
- Dimer relative to total multimer content (AUC %) at 5 hrs, plasma B15: 12.3 AUC %
- Dimer relative to total multimer content (AUC %) at 5 hrs, plasma B18: 7 AUC %
- Dimer relative to total multimer content (AUC %) at 5 hrs, plasma S6: 7 AUC %
- Dimer relative to total multimer content (AUC %) at 5 hrs, plasma S21: 8.5 AUC %
- Increase (%) of dimer 0 vs. 5 hrs, plasma B1: 253%
- Increase (%) of dimer 0 vs. 5 hrs, plasma B2: 209%
- Increase (%) of dimer 0 vs. 5 hrs, plasma B5: 297%
- Increase (%) of dimer 0 vs. 5 hrs, plasma B7: 191%
- Increase (%) of dimer 0 vs. 5 hrs, plasma B15: 241%
- Increase (%) of dimer 0 vs. 5 hrs, plasma B18: 194%
- Increase (%) of dimer 0 vs. 5 hrs, plasma S6: 130%
- Increase (%) of dimer 0 vs. 5 hrs, plasma S21: 173%
- UHMW VWF multimers by semi-automated electrophoresis, plasma B1, 10 IU/mL rADAMTS13: disappearance of all the abnormal UHMW VWF multimers
- UHMW multimer quantitation parameter after 5 h with 10 IU/mL rADAMTS13, plasma B1: to a level lower than that observed in control plasma (88%)
- UHMW multimer quantitation parameter before incubation, plasma B1 (home cast gels): the elevated UHMW multimer quantitation parameter of 124%
- VWF:CB (IU/mL) at 0 hrs, plasma B1, 1 IU/mL rADAMTS13: 3.09 IU/mL
- VWF:CB (IU/mL) at 0 hrs, plasma B2, 1 IU/mL rADAMTS13: 1.39 IU/mL
- VWF:CB (IU/mL) at 0 hrs, plasma B5, 1 IU/mL rADAMTS13: 2.46 IU/mL
- VWF:CB (IU/mL) at 0 hrs, plasma B7, 1 IU/mL rADAMTS13: 3.03 IU/mL
- VWF:CB (IU/mL) at 0 hrs, plasma B15, 1 IU/mL rADAMTS13: 2.44 IU/mL
- VWF:CB (IU/mL) at 0 hrs, plasma B18, 1 IU/mL rADAMTS13: 2.25 IU/mL
- VWF:CB (IU/mL) at 0 hrs, plasma S6, 1 IU/mL rADAMTS13: 2.19 IU/mL
- VWF:CB (IU/mL) at 0 hrs, plasma S10, 1 IU/mL rADAMTS13: 6.48 IU/mL
- VWF:CB (IU/mL) at 0 hrs, plasma S12, 1 IU/mL rADAMTS13: 3.01 IU/mL
- VWF:CB (IU/mL) at 0 hrs, plasma S21, 1 IU/mL rADAMTS13: 3.7 IU/mL
- VWF:CB (IU/mL) at 5 hrs, plasma B1, 1 IU/mL rADAMTS13: 2.02 IU/mL
- VWF:CB (IU/mL) at 5 hrs, plasma B2, 1 IU/mL rADAMTS13: 0.84 IU/mL
- VWF:CB (IU/mL) at 5 hrs, plasma B5, 1 IU/mL rADAMTS13: 1.61 IU/mL
- VWF:CB (IU/mL) at 5 hrs, plasma B7, 1 IU/mL rADAMTS13: 1.58 IU/mL
- VWF:CB (IU/mL) at 5 hrs, plasma B15, 1 IU/mL rADAMTS13: 1.08 IU/mL
- VWF:CB (IU/mL) at 5 hrs, plasma B18, 1 IU/mL rADAMTS13: 1.42 IU/mL
- VWF:CB (IU/mL) at 5 hrs, plasma S6, 1 IU/mL rADAMTS13: 0.73 IU/mL
- VWF:CB (IU/mL) at 5 hrs, plasma S10, 1 IU/mL rADAMTS13: 3.91 IU/mL
- VWF:CB (IU/mL) at 5 hrs, plasma S12, 1 IU/mL rADAMTS13: 1.6 IU/mL
- VWF:CB (IU/mL) at 5 hrs, plasma S21, 1 IU/mL rADAMTS13: 1.63 IU/mL
- mean VWF:CB of ten patient samples after 5 h incubation with 1 IU/mL rADAMTS13: decreased from 3.01 (SD: 1.37; SEM: 0.434) to 1.64 (SD: 0.89; SEM 0.28) IU/mL
- mean VWF:CB of ten patient samples before incubation with 1 IU/mL rADAMTS13: decreased from 3.01 (SD: 1.37; SEM: 0.434) to 1.64 (SD: 0.89; SEM 0.28) IU/mL
- reduction in VWF activity at 5 h, plasma B1, 10 IU/mL rADAMTS13: more than a 60% reduction at 5 h
- reduction in VWF activity within 5 h, plasma B1, 1 IU/mL rADAMTS13: within 5 h, VFW activity reduced by about 30%
- reduction of the UHMW multimer quantitation parameter after 5 h with 1 IU/mL rADAMTS13, plasma B1: reduced by 16% after 5 h of incubation with 1 IU/mL rADAMTS13
- reduction of the UHMW multimer quantitation parameter after 5 h with 10 IU/mL rADAMTS13, plasma B1: by 36% with 10 IU/mL rADAMTS13
